According to US20230265151A1, “GIP/GLP1 CO-AGONIST COMPOUNDS” (priority 2020, published 2023):
*1 amine or outer side, *2 acyl side, *3 side chain or, on linkers, in order; H or OH if unused. Where no end group is shown, it is not given here. Side-chain parts run from the residue outwards. [ ]: non-standard residue; d: D form. The star is where a group is joined. αMePhe(2-F) = C[C@](N)(Cc1ccccc1F)C(=O)O; γGlu = O=C(O)[C@H](CCC(=O)[*:2])N[*:1]; C14 diacid = O=C(O)CCCCCCCCCCCCC(=O)*; εLys = N[C@@H](CCCCN[*:1])C(=O)[*:2]; αMeY = C[C@](N)(Cc1ccc(O)cc1)C(=O)O; αMeL = CC(C)C[C@](C)(N)C(=O)O; Orn = NCCC[C@H](N)C(=O)O; Aib = CC(C)(N)C(=O)O

Columns and labels:
Assay in all cases: cell-based or functional assay
[1] = molecular target: human glucagon receptor (human, UniProt P47871 26-477)
[2] = molecular target: human GLP-1 receptor (human, UniProt P43220 24-463)
[3] = molecular target: T1, human GIP receptor (human, UniProt P48546 22-466)
T1 sequence (looked up): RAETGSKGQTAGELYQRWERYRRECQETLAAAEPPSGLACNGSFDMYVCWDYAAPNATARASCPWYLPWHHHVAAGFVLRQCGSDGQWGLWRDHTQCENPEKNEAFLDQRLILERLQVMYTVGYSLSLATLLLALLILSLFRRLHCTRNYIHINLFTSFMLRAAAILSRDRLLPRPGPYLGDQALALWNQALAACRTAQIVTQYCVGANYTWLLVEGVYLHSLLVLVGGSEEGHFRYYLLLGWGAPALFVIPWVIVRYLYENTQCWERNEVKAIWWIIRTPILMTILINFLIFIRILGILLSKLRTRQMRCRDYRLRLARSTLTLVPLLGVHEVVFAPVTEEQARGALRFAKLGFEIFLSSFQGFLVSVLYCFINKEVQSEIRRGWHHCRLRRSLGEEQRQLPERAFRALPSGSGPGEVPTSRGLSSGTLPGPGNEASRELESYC

B1: Y-Aib-EGT-αMeF(2F)-TSDY-aMeS-I-αMeL-LD-Orn-K((2-[2-(2-Amino-ethoxy)-ethoxy]-acetyl)2-(γ-Glu)-CO-(CH2)12-CO2H)AQ-Aib-EFI-(D-Glu)-αMeY-LIEGGK((2-[2-(2-Amino-ethox … (peptide)
peptide: YXEGTXTSDYXIXLDXKAQXEFIXXLIEGGKSSGAPPPS
modifications: Aib2, αMeF(2F)6, αMeS11, αMeL13, Orn16, Aib20, D-Glu24, αMeY25; acylated K17, K31 (groups as in name); C-terminal amide
cAMP EC50 (1.0% HSA) [1]: > 9950 nM
cAMP EC50 (1.0% HSA) [2]: 20.1 nM
cAMP EC50 (1.0% HSA) [3]: 1.51 nM
cAMP Emax (1.0% HSA) [3]: 92.4%

B2: Y-Aib-EGT-αMeF(2F)-TSD-Bip-SI-αMeL-LD-Orn-K((2-[2-(2-Amino-ethoxy)-ethoxy]-acetyl)2-(γ-Glu)-CO-(CH2)12-CO2H)AQ-Aib-EFI-(D-Glu)-αMeY-LIEGGK((2-[2-(2-Amino-ethoxy … (peptide)
peptide: YXEGTXTSDXSIXLDXKAQXEFIXXLIEGGKSSGAPPPS
modifications: Aib2, αMeF(2F)6, Bip10, αMeL13, Orn16, Aib20, D-Glu24, αMeY25; acylated K17, K31 (groups as in name); C-terminal amide
cAMP EC50 (1.0% HSA) [1]: > 9950 nM
cAMP EC50 (1.0% HSA) [2]: 70.5 nM
cAMP EC50 (1.0% HSA) [3]: 6.62 nM

B3: Y-Aib-EGT-αMeF(2F)-TSD-Nle-SI-αMeL-LD-Orn-K((2-[2-(2-Amino-ethoxy)-ethoxy]-acetyl)2-(γ-Glu)-CO-(CH2)12-CO2H)AQ-Aib-EFI-(D-Glu)-αMeY-LIEGGK((2-[2-(2-Amino-ethoxy … (peptide)
peptide: YXEGTXTSDXSIXLDXKAQXEFIXXLIEGGKSSGAPPPS
modifications: Aib2, αMeF(2F)6, Nle10, αMeL13, Orn16, Aib20, D-Glu24, αMeY25; acylated K17, K31 (groups as in name); C-terminal amide
cAMP EC50 (1.0% HSA) [1]: > 9950 nM
cAMP EC50 (1.0% HSA) [2]: 28.5 nM
cAMP EC50 (1.0% HSA) [3]: 1.2 nM

B4: Y-Aib-EGT-αMeF(2F)-TSD-hTyr-SI-αMeL-LD-Orn-K((2-[2-(2-Amino-ethoxy)-ethoxy]-acetyl)2-(γ-Glu)-CO-(CH2)12-CO2H)AQ-Aib-EFI-(D-Glu)-αMeY-LIEGGK((2-[2-(2-Amino-ethox … (peptide)
peptide: YXEGTXTSDXSIXLDXKAQXEFIXXLIEGGKSSGAPPPS
modifications: Aib2, αMeF(2F)6, hTyr10, αMeL13, Orn16, Aib20, D-Glu24, αMeY25; acylated K17, K31 (groups as in name); C-terminal amide
cAMP EC50 (1.0% HSA) [1]: > 9950 nM
cAMP EC50 (1.0% HSA) [2]: 16.2 nM
cAMP EC50 (1.0% HSA) [3]: 1.52 nM

B5: Y-Aib-EGT-αMeF-TSD-αMeF-SI-αMeL-LD-Orn-K((2-[2-(2-Amino-ethoxy)-ethoxy]-acetyl)2-(γ-Glu)-CO-(CH2)12-CO2H)AQ-Aib-EFI-(D-Glu)-αMeY-LIEGGK((2-[2-(2-Amino-ethoxy)-e … (peptide)
peptide: YXEGTXTSDXSIXLDXKAQXEFIXXLIEGGKSSGAPPPS
modifications: Aib2, αMeF6, αMeF10, αMeL13, Orn16, Aib20, D-Glu24, αMeY25; acylated K17, K31 (groups as in name); C-terminal amide
cAMP EC50 (1.0% HSA) [1]: > 9950 nM
cAMP EC50 (1.0% HSA) [2]: 387 nM
cAMP EC50 (1.0% HSA) [3]: 13.7 nM
cAMP Emax (1.0% HSA) [3]: 72.5%

B6: Y-Aib-EGT-αMeF-TSD-4Pal-SI-αMeF-LD-Orn-K((2-[2-(2-Amino-ethoxy)-ethoxy]-acetyl)2-(γ-Glu)-CO-(CH2)12-CO2H)AQ-Aib-EFI-(D-Glu)-αMeY-LIEGGK((2-[2-(2-Amino-ethoxy)-e … (peptide)
peptide: YXEGTXTSDXSIXLDXKAQXEFIXXLIEGGKSSGAPPPS
modifications: Aib2, αMeF6, 4Pal10, αMeF13, Orn16, Aib20, D-Glu24, αMeY25; acylated K17, K31 (groups as in name); C-terminal amide
cAMP EC50 (1.0% HSA) [1]: > 9950 nM
cAMP EC50 (1.0% HSA) [2]: 261 nM
cAMP EC50 (1.0% HSA) [3]: 12.8 nM
cAMP Emax (1.0% HSA) [3]: 73.3%

B7: Y-Aib-EGT-αMeF-TSD-4Pal-SI-αMeL-LD-Orn-K((2-[2-(2-Amino-ethoxy)-ethoxy]-acetyl)2-(γ-Glu)-CO-(CH2)12-CO2H)AQ-Aib-EFI-(D-Glu)-αMeF-LIEGGK((2-[2-(2-Amino-ethoxy)-e … (peptide)
peptide: YXEGTXTSDXSIXLDXKAQXEFIXXLIEGGKSSGAPPPS
modifications: Aib2, αMeF6, 4Pal10, αMeL13, Orn16, Aib20, D-Glu24, αMeF25; acylated K17, K31 (groups as in name); C-terminal amide
cAMP EC50 (1.0% HSA) [1]: > 9950 nM
cAMP EC50 (1.0% HSA) [2]: 118 nM
cAMP EC50 (1.0% HSA) [3]: 2.12 nM

B8: Y-Aib-EGT-αMeF(2F)-TSD-aMeV-SI-αMeL-LD-Orn-K((2-[2-(2-Amino-ethoxy)-ethoxy]-acetyl)2-(γ-Glu)-CO-(CH2)12-CO2H)AQ-Aib-EFI-(D-Glu)-αMeY-LIEGGK((2-[2-(2-Amino-ethox … (peptide)
peptide: YXEGTXTSDXSIXLDXKAQXEFIXXLIEGGKSSGAPPPS
modifications: Aib2, αMeF(2F)6, αMeV10, αMeL13, Orn16, Aib20, D-Glu24, αMeY25; acylated K17, K31 (groups as in name); C-terminal amide
cAMP EC50 (1.0% HSA) [1]: > 9950 nM
cAMP EC50 (1.0% HSA) [2]: 37.8 nM
cAMP EC50 (1.0% HSA) [3]: 18.6 nM

B9: Y-Aib-EGT-αMeF(2F)-TSD-4Pal-SK((2-[2-(2-Amino-ethoxy)-ethoxy]-acetyl)2-(γ-Glu)-CO-(CH2)12-CO2H)-αMeL-LD-Orn-K((2-[2-(2-Amino-ethoxy)-ethoxy]-acetyl)2-(γ-Glu)-CO … (peptide)
peptide: YXEGTXTSDXSKXLDXKAQXEFIXXLIEGGPSSGAPPPS
modifications: Aib2, αMeF(2F)6, 4Pal10, αMeL13, Orn16, Aib20, D-Glu24, αMeY25; acylated K12, K17 (groups as in name); C-terminal amide
cAMP EC50 (1.0% HSA) [1]: > 9950 nM
cAMP EC50 (1.0% HSA) [2]: 60.4 nM
cAMP EC50 (1.0% HSA) [3]: 2.08 nM
cAMP Emax (1.0% HSA) [3]: 93%

B10: Y-Aib-EGT-αMeF(2F)-TSD-Ac6c-SI-αMeL-LD-Orn-K((2-[2-(2-Amino-ethoxy)-ethoxy]-acetyl)2-(γ-Glu)-CO-(CH2)12-CO2H)AQ-Aib-EFI-(D-Glu)-αMeY-LIEGGK((2-[2-(2-Amino-ethox … (peptide)
peptide: YXEGTXTSDXSIXLDXKAQXEFIXXLIEGGKSSGAPPPS
modifications: Aib2, αMeF(2F)6, Ac6c10, αMeL13, Orn16, Aib20, D-Glu24, αMeY25; acylated K17, K31 (groups as in name); C-terminal amide
cAMP EC50 (1.0% HSA) [1]: > 9950 nM
cAMP EC50 (1.0% HSA) [2]: 20.3 nM
cAMP EC50 (1.0% HSA) [3]: 0.865 nM

B11: Y-Aib-EGT-αMeF(2F)-TSDV-Aib-I-αMeL-LD-Orn-K((εK)-(γ-Glu)-CO-(CH2)12-CO2H)AQ-Aib-EFI-(D-Glu)-αMeY-LIEGGK((εK)-(γ-Glu)-CO-(CH2)12-CO2H)SSGAPPPS-NH2 (peptide)
peptide: Y[Aib]EGT[αMePhe(2-F)]TSDV[Aib]I[αMeL]LD[Orn]K([εLys-γGlu-C14 diacid])AQ[Aib]EFI[dE][αMeY]LIEGGK([εLys-γGlu-C14 diacid])SSGAPPPS-NH2
modifications: N-terminus assumed
SMILES: CC[C@H](C)[C@H](NC(=O)[C@H](CC(C)C)NC(=O)[C@](C)(Cc1ccc(O)cc1)NC(=O)[C@@H](CCC(=O)O)NC(=O)[C@@H](NC(=O)[C@H](Cc1ccccc1)NC(=O)[C@H](CCC(=O)O)NC(=O)C(C)(C)NC(=O)[C@H](CCC(N)=O)NC(=O)[C@H](C)NC(=O)[C@H](CCCCNC(=O)[C@@H](N)CCCCNC(=O)CC[C@H](NC(=O)CCCCCCCCCCCCC(=O)O)C(=O)O)NC(=O)[C@H](CCCN)NC(=O)[C@H](CC(=O)O)NC(=O)[C@H](CC(C)C)NC(=O)[C@](C)(CC(C)C)NC(=O)[C@@H](NC(=O)C(C)(C)NC(=O)[C@@H](NC(=O)[C@H](CC(=O)O)NC(=O)[C@H](CO)NC(=O)[C@@H](NC(=O)[C@](C)(Cc1ccccc1F)NC(=O)[C@@H](NC(=O)CNC(=O)[C@H](CCC(=O)O)NC(=O)C(C)(C)NC(=O)[C@@H](N)Cc1ccc(O)cc1)[C@@H](C)O)[C@@H](C)O)C(C)C)[C@@H](C)CC)[C@@H](C)CC)C(=O)N[C@@H](CCC(=O)O)C(=O)NCC(=O)NCC(=O)N[C@@H](CCCCNC(=O)[C@@H](N)CCCCNC(=O)CC[C@H](NC(=O)CCCCCCCCCCCCC(=O)O)C(=O)O)C(=O)N[C@@H](CO)C(=O)N[C@@H](CO)C(=O)NCC(=O)N[C@@H](C)C(=O)N1CCC[C@H]1C(=O)N1CCC[C@H]1C(=O)N1CCC[C@H]1C(=O)N[C@@H](CO)C(N)=O
cAMP EC50 (1.0% HSA) [2]: 26.6 nM
cAMP EC50 (1.0% HSA) [3]: 3.62 nM
